The text below walks through data of patent US20210024604A1, “NOVEL INSULIN DERIVATIVES” (Novo Nordisk A/S, priority 2009, published 2021).

In series [1] the target is T1, human serum albumin (Homo sapiens, UniProt P02768).
T1 construct: purchased Chromtech Inc HSA 50.3 column
In words: Elution from immobilized human serum albumin column; shift in retention time with glucose in eluent. The class given is binding. Conditions: retention time with no glucose vs 50 mM glucose in eluent, HSA column. The procedure:
The glucose sensitivity of insulin albumin binding can be determined by tuning glucose levels in the elution buffer and determine the shift in retention time as a function of the glucose concentration, table 1 below.
T 37° C., flow 0.7 mL/min, 20 uL of 10 uM samples, UV monitor 220 nm.
Compounds marked with an asterix were eluted with a gradient to 70% buffer B.

The conditions of series [2]: rat, in vivo, iv.
Method: 30 male, fed Wistar rats (250 g) and 30 male, fed ZDF rats (350 g, 12 weeks old) were anesthetized using Hypnorm-Dormicum (0.081 mg/ml fentanyl citrate (VetaPharma Ltd.), 1.25 mg/ml Midazolam (Roche)) 2 ml/kg as a priming dose and additional 1 ml/kg to timepoint −5 min prior to test substance dosing, and then 1 ml/kg every 45 minutes (4 times).
Both the Wistar rats and the ZDF rats were allocated into 5 groups, 6 rats in each (eg 10 groups in total). […] Two doses of each analogue were tested: 1.2 nmol/kg or 3.6 nmol/kg in Wistar rats, and 3.6 nmol/kg or 7.2 nmol/kg in ZDF rats. Blood samples of 100 μl (tail tip capillary puncture) for determination of plasma insulin were collected in microvette tubes at time 3, 15, 30, 60, 120, 180 and 240 minutes after insulin dosing.
Where [3] appears, read: pH 7.4, 37° C., gradient to 50% buffer B.

On to “A22M-15-(3,5-Diboronobenzoylamino)pentadecanoyl B29M-15-(3,5-diboronobenzoylamino)pentadecandioyl A22K desB30 Human Insulin [Example 16]”, for which the “Δ Rt” value in series [1] (marked *: eluted with a gradient to 70% buffer B) is 0.7 min.

Take “B29M-{4-[16-(3-Boronobenzenesulfonylamino)hexadecanoylsulfamoyl]butanoyl} desB30 Human Insulin [Example 14]”: the “Δ Rt” value in series [1] (setting [3]) worked out at 0.8 min.

For “B29N^ε-16-(2,3-Difluoro-4-boronobenzoylamino)hexadecanoyl A14E B25H des B30 Human Insulin [Example 22]”, the “Δ Rt” value in series [1] (setting [3]) was 1.5 min. The “elimination compared with insulin of example 24” value in series [2] is “eliminated faster”.

In the case of “B29N^ε-16-(2,3-Difluoro-4-boronobenzoylamino)hexadecanoyl desB30 Human Insulin [Example 6]”, the “Δ Rt” value in series [1] (setting [3]) is 2.8 min.

Take “B29N^ε-16-(2,3-Difluoro-4-boronobenzoylamino)hexadecanoyl-γ-L-glutamyl desB30 Human Insulin [Example 4]”: the “Δ Rt” value in series [1] (setting [3]) was 1.8 min.

Turning to “B29N^ε-16-(2,6-Difluoro-4-boronobenzoylamino)hexadecanonyl desB30 Human Insulin [Example 9]”, the “Δ Rt” value in series [1] (setting [3]) is 2.5 min.
